Source: the supplement of paper PMC9170038

test system: MS2 coat protein; test: apparent KD of MS2 coat protein; higher = weaker reporter binding; conditions: Eterna round: R107; input ligand: theophylline 20 uM
In short: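 Designed RNA switches were transcribed on-chip from Illumina sequencing clusters. They were then titrated with SNAP-549-labelled MS2 coat protein (twofold steps, 0.7 or 1.5 nM to 3 µM; 0.8–1.5 h to 10–20 min per step) in 100 mM Tris-HCl pH 7.5, 80 mM KCl, 4 mM MgCl2, without or with constant ligand. Apparent KD is the per-design median of normalised cluster binding-curve fits.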

Row | Sequence | apparent KD of MS2 coat protein
1 | ACGUCCCGUUUACUCGUGGGUUAGGUCGAUACCAGUAUUCAAACUUACCCUUGGCAGCGACAUGAGGAUCACCCAUGUGCGAAGA [XTheo A #22] | 22.9 nM
2 | AUAAGGUAUCUGCUAUCCUCAUGAGCAGAUACCAGCUAGGAAACUAGCCCUUGGCAGCUGCAACAUGAGGAUCACCCAUGUAAUA [(T)'-(M)'-(T1)-(T2)-(M1)-(M2)_Design1] | 118 nM
3 | UAACAUGAGGAUCACCCAUGUUUGAAGGAACGAGGACCGGUACGGCCGCCACUCGACGAGUGGAUGAGAAGUGGGCUUGUGUGCU [Same State Trp A GF9] | 16.3 nM
4 | UGGCAAGAGGGAAGGAGCGUCAGCAGAGUCACAUGAGGAUCACCCAUGUAGCACGUGGUGUGACAGGUAGGUCGCCCUCUGCCGU [SS-ArgB12] | 30.7 nM
5 | AAUUUUAACGGAAGGAGCGUCAAUUAAUACAAACAUGAGGAUCACCCAUGUCAAUACAUGAGACAGGUAGGUCGCCGUUAUUUGA [JR_AAArginiB_Sub024] | 28 nM
6 | UCAGGAAGAGCGGCCGCCACUGUUUGGCAUGCGGAUGAAGGAACAUGAGGAUCACCCAUGUAGAUUAGGACCGGGCUUGCGGAGA [szeemullin] | 24.2 nM
7 | AGCCAUGGAAACAUGGCGGCGGCAUGAGCGCGAGGACCGGUACGGCCGCCACUCGGGCAACAUGAGGAUCACCCAUGUUCCUCAU [ETA NP+V+V2 #20 +-Same Structure] | 140 nM
8 | GGUUGGUGUAGAGAUAUAUUGAUUACUGAAGGAGCGGGAAAUAACCCAGGUAGGUCGCAGAGAUCCACAUGAGGAUCACCCAUGU [!0.K] | 53 nM
9 | GUUAGAUCAAAAGAUUUAACAGUGGGUGAACGAGGACCGGUACGGCCGCCACUCGGACAUGAGGAUCACCCAUGUCCAUGUGAAA [AstrosExyTryA#16] | 15.2 nM
10 | ACAUGACAACAUGAGGAUCACCCAUGUCAUCGAGGACCGGUACGGCCGCCACUCGGUCAAUAUGAUACUUGUCAUGAACAUGAGG [Exclusion Tryptophan A 2] | 25.7 nM
11 | GGAAGCAGGACUGAUACCAGUCCAGCGAAUCAUACGACGCAACAUGAGGAUCACCCAUGUGACCCUUGGCAGCAGACUGCUACCG [Same State Theophylline B GF 27] | 37.2 nM
12 | GGAAAAUAUAGGGAUACCAGAUAUGGCGUUGACAUGAGGAUCACCCAUGUCUUAGCAGUGAUCCCUUGGCAGCCCACACCAUCCG [theeternabot_sameState_MS2_Theo_B_13] | 61.3 nM
13 | CCCAGUUAUAACAAAGGAAUUAUACUCGAAGGAGCGUCAUAGUAGGCAGGUAGGUCGCGAGACAUGAGGAUCACCCAUGUAGAGA [k,lmullin] | 56.3 nM
14 | GCUGCCAUACGAAGGAGCGCUGUUGUAGUGAGGCGAACAUGAGGAUCACCCAUGUGGCAGCAGCAGGUAGGUCGCGUAUGGCAGC [EAB #13] | 35 nM
15 | UCGUUAUGGUCGGCCGCCACUCGCGGAGAGCAUAGCUCAAACAUGAGGAUCACCCAUGUAUCAUGGAGGACCGGGACCAUAACGU [Rxmullin variation #StaticStem] | 46.1 nM
16 | GCACCAGGUACGGAUACCAGCUGCCCGAGAUACAUGAGGAUCACCCAUGUGACCUGGUUUAGCCCUUGGCAGCUGUACCUGGUGC [#14 Same State - Theophylline B] | 13.8 nM
17 | UUACAUGAGGAUCACCCAUGUCAUACAGAAGGAGCGUCACAUAAGACAGGUAGGUCGCUGUUAUUUCAUACUGUUAUAUCCUCUA [JR_Nu_ExcArginiA_Sub029] | 56.2 nM
18 | CCUUUGUAGCGAAGGAGCGCGUGACUUAGCUCAUGUAAACAUGAGGAUCACCCAUGUGACACGCAGGUAGGUCGCGCUAUGAAGG [Arg B Ex t3] | 28.7 nM
19 | CUGCCAUGCAGAGAUACCAGUGAGCUCAGAACAUGAGGAUCACCCAUGUACGCCGCCGAUCACCCUUGGCAGCUCUGCAUGGCAG [%*#)(] | 14.1 nM

same assay, conditions: Eterna round: R107; input ligand: theophylline 2 mM

Row | Sequence | apparent KD of MS2 coat protein
20 | ACAUGAGGAUCACCCAUGUAAUAGCGAGAAGGAGCGCGUAAGGACGCAGGUAGGUCGCUCGUGGUCCGGCCGCAAGGCCGGACCA [#1 Same State - Arginine A Attempt #10 (HarryS)] | 12 nM
21 | CAAUAAGUACCGGUCCUCAGAUCCUCAUGACGAGGACCGGUACGGCCGCCACUCGAAACAUGAGGAUCACCCAUGUAAUAAUAAC [Brourdmod02] | 51.9 nM
22 | AGUAGACACGCGGCCGCCACUUGAGGAUCACCCAAGUGGUGUGUACUUGAAAACAAGUGCACAUCAAGGACCGGGCGUGUCUACA [Omei Tryp B SS D v3] | 7.12 nM
23 | GGAUAGGACACGGCCGCCACUAGCUAGGAUACUAGCAACAUUUCCUCACUUGAGGAACACCCAAGUAGGACCGGGUGUCCUAUCG | 1360 nM
24 | GGACUAACCUGAAGGAGCGACGCGCAGAAACUGCAAAUUCCUCCACACGAGGAUCACCCGUGUCAGGUAGGUCGCAGGUUAGUCG [ArgBX 28] | 18.2 nM
25 | AACAUGAGGAUCACCCAUGUGUCCUCGAAACGAGGACCGGUACGGCCGCCACUCGACGUAUGUUGACGAAAAGUCAGCAUACGAA [Mat - Exclusion - Trytophan A - D12] | 330 nM
26 | AUUAACAUGAGGAUCACCCAUGUUCUCACACGAGGACCGGUACGGCCGCCACUCGGUUUGGUAUUGGUCACUAGGCAGUUAGGAG [theeternabot_sameState_MS2_Trp_A_12] | 17 nM
27 | AAAACAAUCUGAAGGAGCGUCACAUGAGGAUCACCCAUGUACAUGAGGAUCACCCAUGUGUGACAGGUAGGUCGCAGAAAAUACC [Exclusion Arginine B GF 3] | 219 nM
28 | CGCACAUGAGGAUCACCCAUGUGAGGGCGGCGAGGACCGGUACGGCCGCCACUCGCAAAACAUGAGGAUCACCCAUGUGCCGCCG [SSTA DOUBLE!!! :-D #2] | 103 nM
29 | GGACUAACCAGAAGGAGCGGCACGCAGAAACUGCAAUUUCCUCCACACGAGGAUCACCCGUGUCAGGUAGGUCGCUGGUUAGUCG [ArgBX 29] | 23.8 nM
30 | UGGCAAGAGGGAAGGAGCGUCAGCUGAGUCACAUGAGGAUCACCCAUGUAGCACAUGGUGUGACAGGUAGGUCGCCCUCUGCCGU [SS-ArgB11] | 28.8 nM
31 | GGACUAACCAGAAGGAGCGACACGCAGAAACUGCAAUUUCCUCCGCACGAGGAUCACCCGUGUCAGGUAGGUCGCUGGUUAGUCG | 25.8 nM
32 | CAUUUUAGAAAACUAAAAUGAGUGGGUGAACGAGGACCGGUACGGCCGCCACUCGGACAUGAGGAUCACCCAUGUCCAUGUGAAA [AstrosExyTryA#22] | 14.4 nM
33 | UAACAUGAGGAUCACCCAUGUUUGAAGGAACGAGGACCGGUACGGCCGCCACUCGACGAGUGGAUGAGAAGUGGGCUUGUGUGCU [Same State Trp A GF9] | 13 nM
34 | UGGCAAGAGGGAAGGAGCGUCAGCAGAGUCACAUGAGGAUCACCCAUGUAGCACGUGGUGUGACAGGUAGGUCGCCCUCUGCCGU [SS-ArgB12] | 21.8 nM
35 | AAUUUUAACGGAAGGAGCGUCAAUUAAUACAAACAUGAGGAUCACCCAUGUCAAUACAUGAGACAGGUAGGUCGCCGUUAUUUGA [JR_AAArginiB_Sub024] | 21.7 nM
36 | UCAGGAAGAGCGGCCGCCACUGUUUGGCAUGCGGAUGAAGGAACAUGAGGAUCACCCAUGUAGAUUAGGACCGGGCUUGCGGAGA [szeemullin] | 19.4 nM
37 | AGCCAUGGAAACAUGGCGGCGGCAUGAGCGCGAGGACCGGUACGGCCGCCACUCGGGCAACAUGAGGAUCACCCAUGUUCCUCAU [ETA NP+V+V2 #20 +-Same Structure] | 158 nM
38 | GGUUGGUGUAGAGAUAUAUUGAUUACUGAAGGAGCGGGAAAUAACCCAGGUAGGUCGCAGAGAUCCACAUGAGGAUCACCCAUGU [!0.K] | 36.9 nM
39 | GUUAGAUCAAAAGAUUUAACAGUGGGUGAACGAGGACCGGUACGGCCGCCACUCGGACAUGAGGAUCACCCAUGUCCAUGUGAAA [AstrosExyTryA#16] | 15.9 nM
